Laboratory results taken from patent US20230183291A1 (Bicycle, published 2023).
Numbered stars: 1 amine (or outer) side, 2 acyl side, 3 side chain; on linkers, the order of the positions; unused ones are H or OH. Bridge positions count the residues as written; N and C are the ends. Square brackets hold non-standard residues; d marks the D form. Ends that are not written are not given here. TATA = O=C(CC[*:1])N1CN(C(=O)CC[*:2])CN(C(=O)CC[*:3])C1; Phe(4-Cl) = N[C@@H](Cc1ccc(Cl)cc1)C(=O)O; Hyp = O=C(O)[C@@H]1C[C@@H](O)CN1; hArg = N=C(N)NCCCC[C@H](N)C(=O)O; PYA = propargyl-acid

Columns and labels:
[1] = molecular target: T1, Biotinylated Human ACE2, His, Avitag protein (ACROBiosystems, AC2-H82E6) (human, UniProt Q9BYF1 18-740); assay: SPR single cycle kinetics, ACE2 captured on CAP chip, peptide analyte; geometric mean; † high bulk contribution observed, treat with caution
T1 construct: also called biotinylated ACE2; ACE2 protein; not shown: His tag and Avitag
Description: (§1) Binding of bicyclic peptides of the invention to Biotinylated Human ACE2, His, Avitag™ protein (ACROBiosystems, AC2-H82E6) was assessed by a SCK analysis. Experiments were performed at 25° C. on a Biacore T200 (Cytiva) running Biacore T200 Control software V2.0.1 and Evaluation software V3.0 (Cytiva). HBS-EP+ (Cytiva) was used as running buffer as well as for ligand and analyte dilutions. Biotin CAPture reagent was loaded onto a Series S Sensor CAP Chip (Cytiva) followed by loading of the ACE2 protein at a flow rate of 2 μl/min. The surface was then allowed to stabilise.
(§2) SCK data was obtained using bicyclic peptides of the invention as analytes injected at a flow rate of 30 μl/min to minimise any potential mass transfer effects. […] The association phases were monitored for 100 seconds for each of the four injections of increasing concentrations of analyte and a single dissociation phase was measured for 400 seconds following the last injection of analyte. Regeneration of the sensor chip surface was conducted using the CAP Chip standard regeneration buffer (Cytiva).
(§3) The signal from the reference channel Fc1 (no ACE2 captured) was subtracted from that of Fc2, Fc3 and Fc4 to correct for bulk effect and differences in non-specific binding to a reference surface. The signal from each blank run (Fc2-ACE2 captured but no antigen) was subtracted to correct for differences in surface stability. […]

[2] = molecular target: T1, Biotinylated Human ACE2, His, Avitag …; assay: SPR single cycle kinetics, biotinylated ACE2 captured on CAP chip, peptide as analyte
Description: as §1, §2, §3

[3] = molecular target: T1, Biotinylated Human ACE2, His, Avitag …; assay: SPR multiple cycle kinetics, ACE2 captured on CAP chip, peptide analyte 6.25-100 nM; geometric mean
Description: (§4) Binding of bicyclic peptides of the invention to Biotinylated Human ACE2, His, Avitag™ protein (ACROBiosystems, AC2-H82E6) was assessed by a MCK analysis. Experiments were performed at 25° C. on a Biacore T200 (Cytiva) running Biacore T200 Control software V2.0.1 and Evaluation software V3.0 (Cytiva). HBS-EP+(Cytiva) was used as running buffer as well as for ligand and analyte dilutions. Biotin CAPture reagent was loaded onto a Series S Sensor CAP Chip (Cytiva) followed by loading of biotinylated ACE2 at a flow rate of 2 μl/min. The surface was then allowed to stabilise.
MCK data was obtained using bicyclic peptides of the invention as analytes injected at a flow rate of 30 μl/min to minimise any potential mass transfer effects. A five point, two-fold dilution range from 6.25 nM to 100 nM of analyte was prepared in running buffer. For each concentration, the association phases were monitored for 250 seconds and the dissociation phase was measured for 450 seconds. Regeneration of the sensor chip surface was conducted between cycles using the CAP Chip standard regeneration buffer (Cytiva). Multiple repeats of a blank and of Bicycle were programmed into the kinetic run in order to check the stability of both the surface and analyte over the kinetic cycles.
(§5) The signal from the reference channel Fc1 (no ACE2 captured) was subtracted from that of Fc2, Fc3 and Fc4 to correct for bulk effect and differences in non-specific binding to a reference surface. The signal from each blank run (Fc2-ACE2 captured but no antigen) was subtracted to correct for differences in surface stability. The double referenced sensorgrams were fitted with the Langmuir (1:1) binding model (Equation 1a above) where the closeness of fit of the data to the model is evaluated using the Chi square value which describes the deviation between the experimental and fitted (observed and expected) curves (Equation 1 b above).

[4] = molecular target: T1, Biotinylated Human ACE2, His, Avitag …; assay: SPR single cycle kinetics, ACE2 captured on CAP chip, peptide analyte; geometric mean; * Rmax set to 10
Description: as §1, §2
as §5, with “below)” for “above)”, “1b below).” for “1 b above).”

[5] = molecular target: T1, Biotinylated Human ACE2, His, Avitag …; assay: SPR multiple cycle kinetics, biotinylated ACE2 captured on CAP chip, peptide as analyte
Description: as §4
MCK data was obtained using bicyclic peptides of the invention as analytes injected at a flow rate of 30 μl/min to minimise any potential mass transfer effects. […] For each concentration, the association phases were monitored for 250 seconds and the dissociation phase was measured for 450 seconds. […]
as §5, with “The signal from each blank run (Fc2-ACE2 captured but no antigen) was subtracted to correct for differences in surface stability.” left out

T1 sequence (Q9BYF1 18-740 limits assumed): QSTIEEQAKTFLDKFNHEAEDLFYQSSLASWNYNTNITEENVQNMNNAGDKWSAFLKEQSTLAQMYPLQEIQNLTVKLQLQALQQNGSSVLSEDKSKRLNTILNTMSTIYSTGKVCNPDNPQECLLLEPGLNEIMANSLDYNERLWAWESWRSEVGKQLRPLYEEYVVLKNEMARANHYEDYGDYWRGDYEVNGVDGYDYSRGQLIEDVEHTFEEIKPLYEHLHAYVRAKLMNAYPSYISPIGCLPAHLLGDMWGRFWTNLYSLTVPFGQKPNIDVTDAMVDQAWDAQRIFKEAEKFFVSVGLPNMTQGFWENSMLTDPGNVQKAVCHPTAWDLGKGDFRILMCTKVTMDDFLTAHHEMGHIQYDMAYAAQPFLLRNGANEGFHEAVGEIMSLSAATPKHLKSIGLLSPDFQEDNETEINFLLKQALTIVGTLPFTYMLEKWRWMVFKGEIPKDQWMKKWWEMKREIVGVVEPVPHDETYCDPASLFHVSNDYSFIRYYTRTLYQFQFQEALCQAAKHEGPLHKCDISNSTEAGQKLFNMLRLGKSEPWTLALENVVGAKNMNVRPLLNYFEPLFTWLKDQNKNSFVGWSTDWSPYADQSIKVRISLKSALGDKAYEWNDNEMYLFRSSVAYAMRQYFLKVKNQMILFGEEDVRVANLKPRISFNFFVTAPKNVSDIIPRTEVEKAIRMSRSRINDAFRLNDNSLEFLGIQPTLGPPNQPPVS

| Binder | Kd [1] [nM] | binding result [2] | further results |
| --- | --- | --- | --- |
| ACNAVLCSWARANS[Phe(4-Cl)]CA (linker 2-7-16 via TATA, bicyclic peptide, TATA scaffold) [BCY17340] | 16.9 |  |  |
| ACNAVLCSWARANSFCAK(PYA) (linker 2-7-16 via TATA, bicyclic peptide, TATA scaffold) [BCY17344] | 3.2 |  |  |
| Ac-CNDVLCSWA[hArg]ANSFC (linker 1-6-15 via TATA, bicyclic peptide, TATA scaffold) [BCY18659] |  | no binding |  |
| Ac-CNEVLCSWA[hArg]ANSFC (linker 1-6-15 via TATA, bicyclic peptide, TATA scaffold) [BCY18783] |  | no binding |  |
| Ac-CNTVLCGWA[hArg]ANSLCK(PYA) (linker 1-6-15 via TATA, bicyclic peptide, TATA scaffold) [BCY18551] |  |  | Kd [3]: 19.5 nM; Kd [4]: 15.4 nM |
| Ac-CNAVLCSWA[hArg][Hyp]NSFC (linker 1-6-15 via TATA, bicyclic peptide, TATA scaffold) [BCY19024] |  |  | binding result [5]: no binding |
